What was measured:
[1] = target: T1, EGFP-Arc (EGFP tag at the N-terminus), expressed in U2OS cells (mouse), Q9WV31; experiment: fluorescence fluctuation spectroscopy (brightness analysis); single-point FFS in the cytoplasm of living U2OS cells, ~200 nM to ~5 µM EGFP-tagged Arc; normalized brightness b against EGFP alone gives the average stoichiometry; details: remark: other sources report otherwise
T1 chain: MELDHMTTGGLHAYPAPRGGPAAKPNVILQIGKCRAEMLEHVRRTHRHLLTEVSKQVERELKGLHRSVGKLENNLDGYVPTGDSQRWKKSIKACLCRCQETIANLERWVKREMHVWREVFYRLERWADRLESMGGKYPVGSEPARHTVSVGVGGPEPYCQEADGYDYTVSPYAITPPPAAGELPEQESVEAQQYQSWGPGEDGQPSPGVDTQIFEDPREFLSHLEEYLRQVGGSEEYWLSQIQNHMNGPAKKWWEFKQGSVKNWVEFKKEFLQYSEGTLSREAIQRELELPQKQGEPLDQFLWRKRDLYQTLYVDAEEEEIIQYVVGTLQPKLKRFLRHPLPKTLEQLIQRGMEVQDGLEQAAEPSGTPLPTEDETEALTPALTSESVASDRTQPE

[2] = target: T2, Arc-EGFP (EGFP tag at the C-terminus), expressed in U2OS cells (mouse), Q9WV31; experiment: as above; details: remark: other sources report otherwise
T2 chain: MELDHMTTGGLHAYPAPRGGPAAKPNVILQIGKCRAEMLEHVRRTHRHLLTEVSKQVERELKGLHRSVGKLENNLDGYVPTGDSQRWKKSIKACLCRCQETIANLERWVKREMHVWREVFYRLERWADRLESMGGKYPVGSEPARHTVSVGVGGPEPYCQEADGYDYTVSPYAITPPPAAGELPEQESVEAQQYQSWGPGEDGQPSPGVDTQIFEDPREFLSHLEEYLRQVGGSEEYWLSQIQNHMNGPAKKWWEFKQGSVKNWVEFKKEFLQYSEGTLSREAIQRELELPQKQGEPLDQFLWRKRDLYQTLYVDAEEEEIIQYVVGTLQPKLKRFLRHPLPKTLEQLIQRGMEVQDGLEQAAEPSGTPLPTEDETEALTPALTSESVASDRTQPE

B1: EGFP-Arc (EGFP tag at the N-terminus), expressed in U2OS cells, Q9WV31 1-396 (natural protein)
chain: MELDHMTTGGLHAYPAPRGGPAAKPNVILQIGKCRAEMLEHVRRTHRHLLTEVSKQVERELKGLHRSVGKLENNLDGYVPTGDSQRWKKSIKACLCRCQETIANLERWVKREMHVWREVFYRLERWADRLESMGGKYPVGSEPARHTVSVGVGGPEPYCQEADGYDYTVSPYAITPPPAAGELPEQESVEAQQYQSWGPGEDGQPSPGVDTQIFEDPREFLSHLEEYLRQVGGSEEYWLSQIQNHMNGPAKKWWEFKQGSVKNWVEFKKEFLQYSEGTLSREAIQRELELPQKQGEPLDQFLWRKRDLYQTLYVDAEEEEIIQYVVGTLQPKLKRFLRHPLPKTLEQLIQRGMEVQDGLEQAAEPSGTPLPTEDETEALTPALTSESVASDRTQPE
Binder B1 has a stoichiometry N (Arc molecules per particle) [1] of 1 to 3.

B2: Arc-EGFP (EGFP tag at the C-terminus), expressed in U2OS cells, Q9WV31 1-396 (natural protein)
chain: MELDHMTTGGLHAYPAPRGGPAAKPNVILQIGKCRAEMLEHVRRTHRHLLTEVSKQVERELKGLHRSVGKLENNLDGYVPTGDSQRWKKSIKACLCRCQETIANLERWVKREMHVWREVFYRLERWADRLESMGGKYPVGSEPARHTVSVGVGGPEPYCQEADGYDYTVSPYAITPPPAAGELPEQESVEAQQYQSWGPGEDGQPSPGVDTQIFEDPREFLSHLEEYLRQVGGSEEYWLSQIQNHMNGPAKKWWEFKQGSVKNWVEFKKEFLQYSEGTLSREAIQRELELPQKQGEPLDQFLWRKRDLYQTLYVDAEEEEIIQYVVGTLQPKLKRFLRHPLPKTLEQLIQRGMEVQDGLEQAAEPSGTPLPTEDETEALTPALTSESVASDRTQPE
For B2, the stoichiometry N (Arc molecules per particle) [2] was 1 to 3.

From PMC11203824
